Experimental data: patent publication US20040143095A1 (RESEARCH DEVELOPMENT FOUNDATION, published 2004)
Changes are numbered by the printed parent chain. Where no end group is shown, it is not given here.

T1: endogenous CRF-R1 of primary rat anterior pituitary cells (rat, UniProt P35353 24-415)
T1 sequence (looked up): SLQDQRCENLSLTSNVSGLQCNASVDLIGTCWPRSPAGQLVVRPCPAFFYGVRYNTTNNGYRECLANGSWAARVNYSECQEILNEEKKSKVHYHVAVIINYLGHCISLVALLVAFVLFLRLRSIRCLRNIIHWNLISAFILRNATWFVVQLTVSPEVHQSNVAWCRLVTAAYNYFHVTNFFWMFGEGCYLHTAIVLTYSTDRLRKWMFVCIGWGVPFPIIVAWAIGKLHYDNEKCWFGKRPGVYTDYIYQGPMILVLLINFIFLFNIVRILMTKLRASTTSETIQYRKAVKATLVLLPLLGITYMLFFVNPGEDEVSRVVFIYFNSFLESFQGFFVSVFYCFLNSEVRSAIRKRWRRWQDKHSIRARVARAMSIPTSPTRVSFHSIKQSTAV

T2: human CRF receptor type 1 (human, UniProt P34998 24-415)
T2 sequence (looked up): T1 sequence (looked up) with R6H, N9S, T13A, V16I, V153M, A163G, V209I, H229Y, R356H


Assays:
[1] = target: T1, endogenous CRF-R1 of primary rat …; experiment: cell-based or functional assay
[2] = target: T2, human CRF receptor type 1; experiment: cell-based or functional assay

| Binder | cAMP accumulation in primary rat anterior pituitary cells, EC50 [1] [nM] | cAMP in CHO cells stably expressing hCRF-R1 (EC50, nM) [2] [nM] |
| --- | --- | --- |
| DDPPLSIDLTFHLLRTLLELARTQSQRERAEQNRIIFDSV (peptide, UniProt P55090 81-120, looked up) [Urocortin (rat)] | 2.3 |  |
| FTLSLDVPTNIMNILFNIDKAKNLRAKAAANAQLMAQI-NH2 [Urocortin III (mouse)] |  | > 100 |
| VILSLDVPIGLLRILLEQARYKAARNQAATNAQILAHV (peptide, UniProt Q99ML8 73-110, looked up) [Urocortin II (mouse)] |  | > 100 |

The next lines start with the values.

| cAMP accumulation in primary rat anterior pituitary cells, EC50 [1] [nM] | cAMP in CHO cells stably expressing hCRF-R1 (EC50, nM) [2] [nM] | Binder |
| --- | --- | --- |
|  | > 100 | FTLSLDVPTNIMNLLFNIAKAKNLRAQAAANAHLMAQI-NH2 [Urocortin III (human)] |
|  | > 100 | IVLSLDVPIGLLQILLEQARARAAREQATTNARILARV (peptide, UniProt Q96RP3 72-109, looked up) [Urocortin II (human)] |
